According to patent US6534640B1, “Methods and compositions to alter the cell surface expression of phosphatidylserine and other clot-promoting plasma membrane phospholipids” (Blood Center Research Foundation, priority 1996, dated 2003):
Where a chain is given by its changes, count along the chain named.

Tests used:
[1] = tested on: human cell lines (Raji, HL60, Dami, HEL, W9, Jurkat, Molt-4, K562); assay: Measurement of cell surface PS (FVa light chain binding, flow cytometry) in human cell lines after calcium ionophore; assay type: cell-based; conditions: 2 μM A23187, 1.2 mM free Ca2+
Procedure: Measurement of cell surface PS. Calcium ionophore-induced exposure of PS on the surface of all cell lines analyzed was detected by the specific binding of coagulation factor Va (light chain) as previously described (P. J. Sims, et al., J. Biol. Chem. 263:18205-18212, 1988; H. Kojima, et al., J. Clin. Invest. 94:2237-2243, 1994). Briefly, cells were washed twice to remove serum proteins and suspended (2×10^6 cells/ml) at 37° C. in RPMI 1640 supplemented with 0.1% BSA, 20 mM HEPES, and adjusted to 1.2 mM free [Ca^2+]. At time=0 A231.87 (0 or 2 μM final concentration) was added from 1 mM stock solution in DMSO, and at times indicated in figure legends, the reaction was stopped by addition of 6 mM EGTA. PS exposed on the cell surface at each time point was detected by incubating (10 minutes, room temperature) 50 μl of the cell suspension with […] FVa, followed by 10 μg/ml anti-FVa, to detect the cell-bound FVa light chain. After staining with 10 μg/ml Tri-Color conjugated goat anti-mouse IgG (CALTAG Laboratories, Burlingame, Calif.), single-cell fluorescence was quantitated by flow cytometry (FL3 channel, FACScan, Becton Dickinson Immunocytometry Systems). Use of Tri-Color conjugate to detect cell-bound FVa enabled simultaneous measurement of cell-associated GFP fluorescence in cell lines transformed with the pEGFP-C2 expression plasmid (fluorescence of GFP detected in FL1 channel). In experiments in which cell lysis was monitored by uptake of propidium iodide, cells were stained for bound FVa with FITC-conjugate of goat anti-mouse IgG (FL1 channel) substituting for Tri-Color conjugate, and propidium iodide was detected in FL3 channel. Propidium iodide (0.5 μg/ml) was added immediately before dilution for flow cytometry.
FIG. 8 depicts western blot analysis of PL scramblase in various human cell lines. Constitutive expression of PL scramblase was analyzed in the human cell lines indicated. […] At times shown (abscissa), EGTA was added and cells analyzed for surface exposed PS as detected by cell-bound FVa light chain (see Materials and Methods). […]

human PL scramblase = assay: PL scramblase activity: Ca2+-dependent transbilayer movement of NBD-PC in reconstituted PC/PS proteoliposomes; assay type: biochemical; conditions: for apparent avidity for Ca2+ of mutant human PL scramblase: activity as function of external free [Ca2+]; for PL scramblase function of Ala-substituted mutants of the EF-hand loop vs wild type: mutant human PL scramblase, 2 mM CaCl2
Procedure: Reconstitution of PL scramblase or scramblase fusion protein into proteoliposomes. Reconstitution and functional activity were performed essentially as previously described (F. Bassé, et al., J. Biol. Chem. 271:17205-17210, 1996; J. G. Stout, et al., J. Clin. Invest. 99:2232-2238, 1997). Briefly, a mixture of PC and PS (9:1 molar ratio) was dried under a stream of nitrogen and resuspended in 100 mM Tris, 100 mM KCl, 0.1 mM EGTA, pH 7.4 (Tris buffer). Protein samples to be reconstituted were added to the liposomes at a final lipid concentration of 4 mg/ml in the presence of 60 mM OG, and dialyzed overnight at 4° C. against 200 vol of Tris buffer containing 1 g/L Bio-Beads SM-2. To liberate PL scramblase from MBP, the proteoliposomes were incubated 3 h at room temperature in the presence of 1/40 (w/w) factor Xa. The digestion was terminated by addition of 100 μM Glu-Gly-Arg chloromethyl ketone. Completeness of the digest was monitored by SDS-PAGE. Following dialysis, the proteoliposomes were labeled in the outer leaflet by addition of 0.25 mol % fluorescent NBD-PC (in dimethyl sulfoxide, final solvent concentration 0.25%).
PL Scramblase activity. Scramblase activity was measured as previously described (F. Bassé, et al., supra, 1996; J. G. Stout, et al., supra, 1997 and in U.S. Ser. No. 08/790,186). Routinely, proteoliposomes labeled with NBD-PC were incubated for 2 hours at 37° C. in Tris buffer in the presence or absence of 2 mM CaCl2. Proteoliposomes were diluted 25-fold in Tris buffer containing 4 mM EGTA and transferred to a stirred fluorescence cuvet at 23° C. Initial fluorescence was recorded (SLM Aminco 8000 spectrof luorimeter; excitation at 470 nm, emission at 532 nm), 20 mM dithionite was added, and the fluorescence continuously monitored for a total of 120 seconds. The difference in non-quenchable fluorescence observed in presence vs. absence of CaCl2 Was attributed to Ca^2+-induced change in NBD-PC located in the outer leaflet (F. Bassé, et al., supra, 1996; J. G. Stout, et al., supra, 1997; J. C. McIntyre and R.G. Sleight, Biochemistry 30:11819-11827, 1991). Ionized [Ca^2+] was calculated using FreeCal version 4.0 software (generously provided by Dr. Lawrence F. Brass, University of Pennsylvania, Philadelphia, Pa.).
(§1) Reconstitution and Functional Activity of PL Scramblase: Reconstitution, removal of MBP, and functional assay of PL scramblase were performed as previously described (F. Bassé, et al., J. Biol. Chem. 271:17205-17210, 1996; Q. Zhou, et al., supra, 1997; J. G. Stout, et al., J. Clin. Invest. 99:2232-2238, 1997). Routinely, 420 pmoles of protein were reconstituted with 1 μmol of PL. To remove MBP, proteoliposomes were incubated 3 hours at room temperature with 1/40 (w/w) factor Xa. The digest was terminated by addition of 100 μM Glu-Gly-Arg chloromethyl ketone. Proteoliposomes labeled with NBD-PC were incubated for 2 hours at 37° C. in Tris buffer in the presence or absence of CaCl2 as indicated in figure legends and diluted 25-fold in Tris buffer containing 4 mM EGTA. Initial fluorescence was recorded (SLM Aminco 8000 spectrofluorimeter; excitation at 470 nm, emission at 532 nm), 20 mM dithionite was added, and the fluorescence was continuously monitored for a total of 120 seconds. Scramblase activity was calculated according to the difference in non-quenchable fluorescence observed in presence vs absence of CaCl2. Ionized [Ca^2+] was calculated using FreeCal version 4.0 software (generously provided by Dr. Lawrence F. Brass, University of Pennsylvania, Philadelphia, Pa.).
Mutagenesis of PL Scramblase: Human PL scramblase amino acid residues in EF-hand Ca^2+-binding motif at positions of Asp^273, Asp^275, Phe^277, Ile^279, Phe^281 and Asp^284 were mutated to Ala with oligonucleotide-directed mutagenesis by two rounds of PCR. […]

mouse PL scramblase = biological target: T1, mouse PL scramblase (Mus musculus, UniProt Q9DCW2); assay: PL scramblase activity of recombinant mouse protein in reconstituted PC/PS proteoliposomes; assay type: biochemical; conditions: 420 pmoles protein, 1 μmol PL
T1 construct: made in house; host or cells: E. coli TB1 (pMAL-C2)
T1 sequence (Q9DCW2 1-307): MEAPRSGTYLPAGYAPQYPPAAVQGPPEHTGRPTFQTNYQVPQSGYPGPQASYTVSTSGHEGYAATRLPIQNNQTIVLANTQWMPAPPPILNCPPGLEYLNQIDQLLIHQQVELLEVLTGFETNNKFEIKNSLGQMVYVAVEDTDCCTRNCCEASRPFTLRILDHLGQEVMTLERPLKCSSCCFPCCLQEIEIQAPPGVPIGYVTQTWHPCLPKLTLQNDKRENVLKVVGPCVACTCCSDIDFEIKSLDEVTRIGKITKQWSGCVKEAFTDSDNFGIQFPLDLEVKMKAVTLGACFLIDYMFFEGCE
Procedure: Expression and Purification of Mouse PL Scramblase-MBP Fusion Protein: Mouse PL scramblase was expressed as fusion protein with MBP in E. coli TB1 and purified on amylose resin as previously described for human PL scramblase (Q. Zhou, et al., J. Biol. Chem. 272:18240-18244, 1997). The purified fusion protein was centrifuged at 106,000×g for 1 hour at 4° C. to remove aggregated protein.
as §1
Functional Activity of Recombinant Mouse PL Scramblase. In order to confirm that the cDNA identified as mouse PL scramblase encodes a protein of similar function to that identified in human, the human and mouse proteins were each expressed in E. coli, purified, and reconstituted in proteoliposomes for measurement of PL mobilizing activity. Mouse or human PL scramblase-MBP fusion protein (420 pmoles) was reconstituted into PC/PS liposomes (1 μmol total PL), respectively, MBP was removed by digestion of the proteoliposomes with factor Xa, and PL scramblase activity was determined as described under “Experimental Procedures” and plotted as a function of external free [Ca^2+]. The results of this experiment indicate that recombinant mouse PL scramblase mediated a Ca^2+-dependent transbilayer movement of membrane PL with a specific activity and affinity for Ca^2+ indistinguishable from that observed for the recombinant human protein.

In the case of `CNc1ccc2oc(C[C@H]3O[C@@]4(CC[C@H]3C)O[C@H]([C@H](C)C(=O)c3ccc[nH]3)[C@H](C)C[C@H]4C)nc2c1C(=O)O` [A23187], the “PS mobilized to the cell surface in response to calcium ionophore” value (shortened to “PS mobilized … to calcium ionophore”) ([1]; HEL, W9 and Jurkat cells) is reported as “notably robust responses”, the “PS mobilized … to calcium ionophore” value ([1]; Molt-4 and K562 cells) is reported as “intermediate responses” and the “PS mobilized … to calcium ionophore” value ([1]; Raji, HL60 and Dami cells) is reported as “notably unresponsive”.

B1: Asp275: Mutant human PL scramblase with Ala substitution at Asp275 (EF-hand loop position 3) (protein, UniProt O15162 1-318, looked up, variant D275A)
Phospholipid scramblase 1: MDKQNSQMNASHPETNLPVGYPPQYPPTAFQGPPGYSGYPGPQVSYPPPPAGHSGPGPAGFPVPNQPVYNQPVYNQPVGAAGVPWMPAPQPPLNCPPGLEYLSQIDQILIHQQIELLEVLTGFETNNKYEIKNSFGQRVYFAAEDTDCCTRNCCGPSRPFTLRIIDNMGQEVITLERPLRCSSCCCPCCLQEIEIQAPPGVPIGYVIQTWHPCLPKFTIQNEKREDVLKISGPCVVCSCCGDVDFEIKSLDEQCVVGKISKHWTGILREAFTDAANFGIQFPLDLDVKMKAVMIGACFLIDFMFFESTGSQEQKSGVW
For B1, the “apparent avidity for Ca2+ of mutant human PL scramblase” value (“apparent avidity for Ca2+” for short) (human PL scramblase) was “significant reduction” and the “PL scramblase function of Ala-substituted mutants of the EF-hand loop vs wild type” value (from here on “PL scramblase function … vs wild type”) (human PL scramblase) was “complete inactivation”.

B2: Asp273: Mutant human PL scramblase with Ala substitution at Asp273 (EF-hand loop position 1) (protein, listed as Homo sapiens)
chain: B1 Phospholipid scramblase 1 with D273A, A275D
In the case of B2, the “apparent avidity for Ca2+” value (human PL scramblase) is reported as “significant reduction” and the “PL scramblase function … vs wild type” value (human PL scramblase) is reported as “partial loss of function”.

B3: Asp284: Mutant human PL scramblase with Ala substitution at Asp284 (EF-hand loop position 12) (protein, UniProt O15162 1-318, looked up, variant D284A)
Phospholipid scramblase 1: B1 Phospholipid scramblase 1 with A275D, D284A
B3 was tested, and the “apparent avidity for Ca2+” value (human PL scramblase) was “significant reduction” and the “PL scramblase function … vs wild type” value (human PL scramblase) was “partial loss of function”.

B4: recombinant mouse PL scramblase: Recombinant murine PL scramblase (SEQ ID NO:4), 307 residues, expressed in E. coli (protein, listed as Mus musculus)
chain: T1 sequence (Q9DCW2 1-307) with Q168N, K178R, K221L, D242S, K256L, K259L, K266L
In the case of B4, the “affinity for Ca2+ compared with recombinant human protein” value (mouse PL scramblase) is reported as “indistinguishable”, the “specific activity (Ca2+-dependent transbilayer movement of membrane PL) compared with recombinant human protein” value (mouse PL scramblase) is reported as “indistinguishable” and the “affinity for Ca2+ compared with recombinant human protein” value (mouse PL scramblase; listed as murine PL scramblase) is reported as “virtually the same”. The “specific activity (Ca2+-dependent transbilayer movement of membrane PL) compared with recombinant human protein” value (mouse PL scramblase; listed as murine PL scramblase) was “the same activity”.
